Experimental data as given in patent US20090324593A1 (MacroGenics, published 2009).

T1: WNV E-protein domain III (dIII) (West Nile Virus, UniProt Q9Q6P4 580-705)
T1 construct: domain: Domain III; also called the antigen; the receptor
T1 sequence (looked up): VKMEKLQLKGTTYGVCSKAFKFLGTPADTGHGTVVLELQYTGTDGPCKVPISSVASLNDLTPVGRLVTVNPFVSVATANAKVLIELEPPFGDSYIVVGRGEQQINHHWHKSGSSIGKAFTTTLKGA

B1: Humanized E16 huE16-3.1 (huE16HC T71A / huE16LC) (antibody, V domains shown)
VH: QVQLVQSGAEVKKPGASVKVSCKASGYTFTDYWIEWVRQAPGQGLEWMGDILCGTGRTRYNEKLKARVTMTADTSTSTAYMELRSLRSDDTAVYYCARSASYGDYADYWGQGTTVTVSS
VL: DIVMTQSPDSLAVSLGERATINCKASQDVSTAVAWYQQKPGQPPKLLIYWASTRHTGVPDRFSGSGSGTDFTLTISSLQAEDVAVYYCQQHYTTPLTFGQGTKLEIK
notes: also called huE16-3 (T71A)/huE16LC; huE16HC-2 T71A/huE16LC
B2: Humanized E16 huE16-2.1 (huE16HC-2 V67A, M69F, T71A / huE16LC) (antibody, V domains shown)
VH: QVQLVQSGAEVKKPGASVKVSCKASGYTFTDYWIEWVRQAPGQGLEWMGDILCGTGRTRYNEKLKARATFTADTSTSTAYMELRSLRSDDTAVYYCARSASYGDYADYWGQGTTVTVSS
VL: DIVMTQSPDSLAVSLGERATINCKASQDVSTAVAWYQQKPGQPPKLLIYWASTRHTGVPDRFSGSGSGTDFTLTISSLQAEDVAVYYCQQHYTTPLTFGQGTKLEIK
B3: Humanized E16 huE16-2.2 (huE16HC-2 V67A, M69F, T71A / huE16LC-2 Y49S) (antibody, V domains shown)
VH: QVQLVQSGAEVKKPGASVKVSCKASGYTFTDYWIEWVRQAPGQGLEWMGDILCGTGRTRYNEKLKARATFTADTSTSTAYMELRSLRSDDTAVYYCARSASYGDYADYWGQGTTVTVSS
VL: DIVMTQSPDSLAVSLGERATINCKASQDVSTAVAWYQQKPGQPPKLLISWASTRHTGVPDRFSGSGSGTDFTLTISSLQAEDVAVYYCQQHYTTPLTFGQGTKLEIK
B4: Humanized E16 huE16-3.2 (huE16HC T71A / huE16LC-2 Y49S) (antibody, V domains shown)
VH: QVQLVQSGAEVKKPGASVKVSCKASGYTFTDYWIEWVRQAPGQGLEWMGDILCGTGRTRYNEKLKARVTMTADTSTSTAYMELRSLRSDDTAVYYCARSASYGDYADYWGQGTTVTVSS
VL: DIVMTQSPDSLAVSLGERATINCKASQDVSTAVAWYQQKPGQPPKLLISWASTRHTGVPDRFSGSGSGTDFTLTISSLQAEDVAVYYCQQHYTTPLTFGQGTKLEIK
notes: also called hE16-3.2; huE16-2 (T71A)/huE16LC-2 (Y49S)

The binders below were run against T1, WNV E-protein domain III (dIII) (assay: antigen capture ELISA (sheet title: E9 captured E protein DIII), 2.5 ng/well domain III captured by mouse antibody E9, HRP anti-human IgG F(ab')2 detection).
Method: Protocol for antibody-capture ELISA assay: 2.5 ng/well of dIII was captured on 96-well Maxisorp plates by mouse anti-WNV E-protein antibody E9 at room temperature for 2 hours. A serial of two-fold dilution of conditioned medium of chE16, huE16, huE16HC/ch2B6LC or chE16HC/huE16LC starting from 5 ng/well was added to each well. The plate was incubated at room temperature for 1 hour, then binding was detected by HRP conjugated F(ab′)₂ goat anti human IgG F(ab)′₂ specific secondary antibody (Jackson ImmunoResearch, Inc.) at 1:10,000 dilution. After incubation with the secondary antibody for approximately 45 minutes, the plate was developed using a TMB substrate. After 5 minutes incubation, the reaction was stopped by 1% H₂SO₄. The OD₄₅₀ nm was read by SOFTmax program. Between each step, the plates were washed 3 times with PBS/0.1% Tween20. Plates were blocked by 0.5% BSA in PBS/0.1% Tween 20 for 30 mins at room temperature before adding conditioned medium.
After three days in culture the amount of human IgG expressed was quantitated by ELISA. Binding to WNV E-protein domain III (dIII) was determined by ELISA and antibody-capture ELISA assays as described above.

EC50 (read off the curve), ~0.01 mg/L:
B1
B2
B3
B4
